Measured values from article PMC3213119, “Towards a Structural Comprehension of Bacterial Type VI Secretion Systems: Characterization of the TssJ-TssM Complex of an Escherichia coli Pathovar” (PLoS Pathogens, 2011).

How the values were obtained:
[1] = target: T1, TssJ (enteroaggregative E. coli Sci1 T6SS), residues 2-155 of the processed lipoprotein, fusion and tag … (enteroaggregative Escherichia coli …); assay: SPR; Biacore X100; Trx-TssM-ekto covalently coupled to a CM5 chip (3000 RU), TssJ injected (40-0.312 µM); 10 mM Tris pH 8, 150 mM NaCl, 0.005% Tween; Kd from equilibrium levels, 1:1 model; details: both partners purified
T1 construct: TssJ outer membrane lipoprotein of the sci1 cluster, enteroaggregative Escherichia coli strain 17-2; residues 2-155 of the processed lipoprotein = residues 25-178 of the full-length protein; a Gly left at position 1 may stem from the TEV site (surmised); also called native TssJ; SciN; not shown: thioredoxin, N-terminal, cleaved; His6, N-terminal, cleaved

[2] = target: T2, TssJ N-terminal thioredoxine fusion (enteroaggregative Escherichia coli …); assay: SPR; Biacore X100; Trx-TssJ covalently coupled to a CM5 chip (600 RU), TssM construct injected (Trx-TssM-ekto at 10-0.312 µM); 10 mM Tris pH 8, 150 mM NaCl, 0.005% Tween; Kd from equilibrium levels, 1:1 model; details: both partners purified
T2 construct: TssJ of enteroaggregative Escherichia coli strain 17-2; residues 2-155 of the processed lipoprotein = residues 25-178 of the full-length protein; pETG-20A construct: hexahistidine tagged thioredoxin, TEV site, TssJ; used uncleaved on the CM5 chip; also called Trx-TssJ; source: E. coli T7 Iq pLysS, purified; not shown: thioredoxin, N-terminal, kept; His6, N-terminal, kept

B1: TssM-ekto N-terminal thioredoxine fusion (domain or fragment)
chain: DYGSLTAAGLGQEWYGFGQTVFVRPMEQAWQQVLTPAAESLNARWRTAVVDGWNNAFSGRYPFKNVSSDASLPLLAKYLNTDTGRIARFLQNNLSGVLHREGSRWVPDTINTRGLTFNPAFLKAINTLSEIADVAFTTGNAGLHFELRPGTAAGVMQTTLITDNQKLIYVNQMPVWKRFTWPADTEAPGASLSWVSTQAGTRQYADLPGSWGLIRLLEMARRKAAPGVASGWSLSWQAQDGRMLNYTLRTEAGEGPLVLLKLRNFVLPETVFELSGTSAFTGNDEDAGDTVEETD
- Kd [1]: 4 ± 0.5 µM
- Kd [2]: 2.1 µM
